Target: PD-1 protein on the surface of Jurkat PD-1 NFAT line cells (UniProt Q15116)
Experiment: cell-based or functional assay

Sequence of UniProt Q15116 (Q15116 25-288 limits assumed): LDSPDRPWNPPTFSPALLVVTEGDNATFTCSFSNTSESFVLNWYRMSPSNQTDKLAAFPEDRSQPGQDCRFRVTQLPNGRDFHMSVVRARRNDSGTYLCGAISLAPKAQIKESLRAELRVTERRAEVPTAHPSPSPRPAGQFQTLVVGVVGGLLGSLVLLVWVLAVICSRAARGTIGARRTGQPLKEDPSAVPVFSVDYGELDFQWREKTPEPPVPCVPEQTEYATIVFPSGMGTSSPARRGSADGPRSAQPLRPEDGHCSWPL

B1: prolgolimab (antibody, from a related filing, V domains shown)
VH: QVQLVQSGGGLVQPGGSLRLSCAASGFTFSSYWMYWVRQVPGKGLEWVSAIDTGGGRTYYADSVKGRFAISRVNAKNTMYLQMNSLRAEDTAVYYCARDEGGGTGWGVLKDWPYGLDAWGQGTLVTVSS
VL: QPVLTQPLSVSVALGQTARITCGGNNIGSKNVHWYQQKPGQAPVLVIYRDSNRPSGIPERFSGSNSGNTATLTISRAQAGDEADYYCQVWDSSTAVFGTGTKLTVLQ
  Relative specific activity, % (ED50 standard / ED50 test, Jurkat PD-1 NFAT luminescence); 20 mg/ml, histidine, trehalose 100 mg/ml, 37 C, initial control: 105%
  Relative specific activity, %; 20 mg/ml, acetate pH 5.0, trehalose 80 mg/ml, 37 C, 2 weeks: 103%
  Relative specific activity, %; 20 mg/ml, acetate pH 5.0, trehalose 80 mg/ml, 37 C, 4 weeks: 94%
  Relative specific activity, %; 20 mg/ml, acetate pH 5.0, trehalose 80 mg/ml, 37 C, initial control: 100%
  Relative specific activity, %; 20 mg/ml, acetate pH 5.0, trehalose 100 mg/ml, 37 C, 2 weeks: 93%
  Relative specific activity, %; 20 mg/ml, acetate pH 5.0, trehalose 100 mg/ml, 37 C, 4 weeks: 99%
  Relative specific activity, %; 20 mg/ml, acetate pH 5.0, trehalose 100 mg/ml, 37 C, initial control: 89%
  Relative specific activity, %; 20 mg/ml, histidine, trehalose 80 mg/ml, 37 C, 2 weeks: 103%
  Relative specific activity, %; 20 mg/ml, histidine, trehalose 80 mg/ml, 37 C, 4 weeks: 94%
  Relative specific activity, %; 20 mg/ml, histidine, trehalose 80 mg/ml, 37 C, initial control: 100%
  Relative specific activity, %; 20 mg/ml, histidine, trehalose 100 mg/ml, 37 C, 2 weeks: 97%
  Relative specific activity, %; 20 mg/ml, histidine, trehalose 100 mg/ml, 37 C, 4 weeks: 110%
  Relative specific activity, %; 100 mg/ml, acetate pH 5.0, trehalose 80 mg/ml, 37 C, 2 weeks: 94%
  Relative specific activity, %; 100 mg/ml, acetate pH 5.0, trehalose 80 mg/ml, 37 C, 4 weeks: 105%
  Relative specific activity, %; 100 mg/ml, acetate pH 5.0, trehalose 80 mg/ml, 37 C, initial control: 89%
  Relative specific activity, %; 100 mg/ml, acetate pH 5.0, trehalose 100 mg/ml, 37 C, 2 weeks: 112%
  Relative specific activity, %; 100 mg/ml, acetate pH 5.0, trehalose 100 mg/ml, 37 C, 4 weeks: 97%
  Relative specific activity, %; 100 mg/ml, acetate pH 5.0, trehalose 100 mg/ml, 37 C, initial control: 107%
  Relative specific activity, %; 100 mg/ml, histidine, trehalose 80 mg/ml, 37 C, 2 weeks: 94%
  Relative specific activity, %; 100 mg/ml, histidine, trehalose 80 mg/ml, 37 C, 4 weeks: 105%
  Relative specific activity, %; 100 mg/ml, histidine, trehalose 80 mg/ml, 37 C, initial control: 89%
  Relative specific activity, %; 100 mg/ml, histidine, trehalose 100 mg/ml, 37 C, 2 weeks: 104%
  Relative specific activity, %; 100 mg/ml, histidine, trehalose 100 mg/ml, 37 C, 4 weeks: 97%
  Relative specific activity, %; 100 mg/ml, histidine, trehalose 100 mg/ml, 37 C, initial control: 101%
  Relative specific activity, %; 150 mg/ml, acetate pH 5.0, trehalose 80 mg/ml, 37 C, 2 weeks: 99%
  Relative specific activity, %; 150 mg/ml, acetate pH 5.0, trehalose 80 mg/ml, 37 C, 4 weeks: 108%
  Relative specific activity, %; 150 mg/ml, acetate pH 5.0, trehalose 80 mg/ml, 37 C, initial control: 91%
  Relative specific activity, %; 150 mg/ml, acetate pH 5.0, trehalose 100 mg/ml, 37 C, 2 weeks: 106%
  Relative specific activity, %; 150 mg/ml, acetate pH 5.0, trehalose 100 mg/ml, 37 C, 4 weeks: 103%
  Relative specific activity, %; 150 mg/ml, acetate pH 5.0, trehalose 100 mg/ml, 37 C, initial control: 92%
  Relative specific activity, %; 150 mg/ml, histidine, trehalose 80 mg/ml, 37 C, 2 weeks: 99%
  Relative specific activity, %; 150 mg/ml, histidine, trehalose 80 mg/ml, 37 C, 4 weeks: 108%
  Relative specific activity, %; 150 mg/ml, histidine, trehalose 80 mg/ml, 37 C, initial control: 91%
  Relative specific activity, %; 150 mg/ml, histidine, trehalose 100 mg/ml, 37 C, 2 weeks: 100%
  Relative specific activity, %; 150 mg/ml, histidine, trehalose 100 mg/ml, 37 C, 4 weeks: 105%
  Relative specific activity, %; 150 mg/ml, histidine, trehalose 100 mg/ml, 37 C, initial control: 97%
